Data from the supplement of paper PMC12764529.
± gives the half width of the 95% confidence interval.

Key:
[1] = folding stability dG unfold from trypsin proteolysis; higher = more stable
Outline: (§1)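 Digests were run with trypsin and chymotrypsin at 11 concentrations in threefold dilutions, plus a no-protease condition, on designed mini-proteins in a PA-tagged cDNA display construct. The mini-proteins were under 80 residues, had no cysteine, and were kept only when AlphaFold2 dimer inter-PAE was above 15. After sequencing, Bayesian fitting of the counts gave K50, from which unfolding free energy was derived against a sequence-predicted unfolded-state K50 and a shared folded-state K50, per protease or combined.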

[2] = folding stability dG unfold from chymotrypsin proteolysis; higher = more stable
Outline: as §1

[3] = folding stability dG unfold (combined trypsin and chymotrypsin); higher = more stable
Outline: as §1

| Sequence | folding stability dG unfold [1] [kJ/mol] | folding stability dG unfold [2] [kJ/mol] | folding stability dG unfold [3] [kJ/mol] |
| --- | --- | --- | --- |
| SAGGSAGGTIMIQFPDMDSPEEAIDQAEFFINEFMKQGNPGKPIKVTIQDPKNGQQQTFEIPLESAGGSAGG [r6_238_TrROS] | -3.91 ± 2.05 | 1.02 ± 0.669 | -0.476 ± 0.669 |
| SAGGSAGGTITLPGVTVEITEENGTLTIRVTSPDGRTLTRTITLPAGETVTVTDANGKTVTVRLSAGGSAGG [r6_806_TrROS_Hall] | 11.7 ± 0.305 | 14 ± 0.247 | 13.3 ± 0.46 |
| SAGGSAGGTITVTPLPDGRELITYPEKNALVEIVKDPATGKETVIVYEDGEPKVISLEELKKKLSAGGSAGG [r6_534_JUSTAS] | 1.5 ± 0.247 | 1.6 ± 0.0879 | 1.74 ± 0.331 |
| SAGGSAGGTIWFDNPEDVERVVKDLRQEFPPDNPIDIMIWGPGSMYVIEITPDKIKDVEVYPMDSAGGSAGG [r6_289_TrROS] | 1.33 ± 0.343 | 2.86 ± 0.586 | 2.5 ± 1.13 |
| SAGGSAGGTLSIEELKELFPEAEKIEAEEVELTFTLPNGKKVKAKYRLVTVYRDNKPILLLVPGSAGGSAGG [r6_138_TrMRF] | 11.8 ± 0.711 | 12.4 ± 0.234 | 12.4 ± 0.502 |
| SAGGSAGGTLTIDELKELFPDVTEVKIEEKEETYTDKNGKKRKVKTKVIKVKVNGKEVTIEVKESAGGSAGG [r6_138_TrROS_Hall] | 8.19 ± 0.209 | 2.24 ± 0.544 | 5.21 ± 0.795 |
| SAGGSAGGTPKLAETRKNGKKVLAPVEVDPETGVITVTPPDGTTEVVPASRPPPFIEEDPSLGSSAGGSAGG [r6_174_JUSTAS] | -1.06 ± 0.176 | 6.02 ± 0.155 | 4.31 ± 0.364 |
| SAGGSAGGVEPVVVGRVPVVVRDPATGELREAEILRALPDGTLFIRFPNGERAEIRGAPVLSLASAGGSAGG [r6_433_TrMRF] | 4.47 ± 0.146 | 6.44 ± 0.402 | 5.65 ± 0.36 |
| SAGGSAGGWYVRITTNNGNQISIHLEELGLPEESFKEMTEEDLAEYLSKLFPGRPIKIEPVPLPSAGGSAGG [r6_165_TrROS] | 12.9 ± 0.586 | 14 ± 0.46 | 13.1 ± 0.586 |
| SAGGSAGGYIVKIKMPKFPHVFIFPPEMPPKQFADEIRRRFGNPDAPITDITIQPVTPEELKKLSAGGSAGG [r6_122_TrROS] | 3.29 ± 0.247 | 5.86 ± 0.502 | 4.84 ± 0.502 |
| SAGGSAGILEKTIKLAEELGLPVVEAKVVKKKNKVYVFFKSKKSKKYVIEIDGDKITIKPYSVVKKSAGGSA [r15_901_TrMRF] | 8.177 ± 0.0586 | 12.5 ± 0.209 | 11.2 ± 0.247 |
| SAGGSAGKITIPARVKITLTPPNGPTVTFDAIITRVEDNSIELILGNVPITIPPNAKNVTITSVEGSAGGSA [r15_510_TrMRF] | 6.08 ± 0.0753 | 6.39 ± 0.092 | 6.23 ± 0.218 |
| SAGGSAGKTKIEIRPLPDGSYLVLVTSPDGSKSEFIADGPDIPLPELLKKLNLPPDIEVVNAELPESAGGSA [r15_167_TrMRF] | 12.5 ± 0.502 | 12.8 ± 0.234 | 12.5 ± 0.544 |
| SAGGSAGLAEAILREAASAGIPLENVRIVDVRAFVTPDAVVFRARIEYRLPNSTSLAYADAVVPAPSAGGSA [r15_863_TrMRF] | 5.94 ± 0.109 | 7.62 ± 0.36 | 7.07 ± 0.305 |
| SAGGSAGMNRVSLKPLPDGTYEVTITYPDGSTSTYTVPGPAVSLEEILKRLNIPESIEVEDVEPLGSAGGSA [r15_167_JUSTAS] | 11.1 ± 0.372 | 16.2 ± 0.247 | 14.7 ± 0.314 |
| SAGGSAGMPDIIYKVKITVTSSGKVTTLDITLPSEEEVKKAIEELKKKGYTNIKPEIEKFLKSELGSAGGSA [r15_1015_JUSTAS] | 4.82 ± 0.502 | 8.93 ± 0.276 | 8.38 ± 0.795 |
| SAGGSAGMPSPVLLDVTIANPDGTTSTVTAPYASPEVAEAYVRENYPDAEVTYDPATGRVSVNVPSSAGGSA [r15_313_JUSTAS] | 9.65 ± 0.385 | 8.76 ± 0.138 | 9.21 ± 0.226 |
